In paper PMC6813122, “Characterization of a highly stable α-galactosidase from thermophilic Rasamsonia emersonii heterologously expressed in a modified Pichia pastoris expression system” (Microbial Cell Factories, 2019):

Tests used:
[1] = target: ReGal2, GH27 α-galactosidase from Rasamsonia emersonii (Rasamsonia emersonii); assay: SEC; gel filtration of purified ReGal2, Superdex 200 Increase 10/300 GL, 10 mM Tris-HCl pH 8.0 plus 100 mM NaCl, calibrated with molecular weight standards; self-association, oligomeric state of the native enzyme
purified protein = substrate: O=[N+]([O-])c1ccc(O[C@H]2O[C@H](CO)[C@H](O)[C@H](O)[C@H]2O)cc1; assay: purified protein; settings: 80 °C, 20 mM HAc-NaAc buffer pH 4.8 (general assay buffer), 0.25-2.0 mM pNPGal

| stoichiometry N [1] | Molecule | Km (purified protein) | kcat (purified protein) | kcat/Km (purified protein) |
| --- | --- | --- | --- | --- |
| 6 | ReGal2, GH27 α-galactosidase from Rasamsonia emersonii (enzyme) | – | – | – |
| – | ReGal2 (Rasamsonia emersonii CBS 393.64) (protein) LDNGLAITPQMGWNTWNSFGCSLNETVILDAAEKLVSLGFKDLGYEYVVLDDCWSAGRNASGYLVPDPAKFPNGIDGLAEKIHALGLKIGIYSSAGTMTCARYAGSLGYEEKDAALWASWGIDYLKYDNCYNQGQEGTPKLSYDRYNAMGQALNKTGRPILYSLCNWGVDGPWNFASTIANSWRTSGDLLNTWDRDDANCPCSELEGLDCKTPGYKCSILNVINKAVYYPSKAFPGAWNDLDMLQVGNGGLTDDEAVAHMSLWAAFKSPLLMTNVLSNIDPPTLSILQNPAVLAVSQDPVGSSVNRIWRYYVDDVDANGYGEIQLFSGGLAGGDQLVLLLNAGSKDRTMNATLEDIFWEDGPGGTASQVQQSWDVYDLWANRMSNETAAAIINAANSTGSAAPAAPINMTALGGAKHVYSQVPPSDSKALMGTKVGSVQPSGTVKAFVKAHGVAMLRLRQQSQKKDEL | 190 ± 40 µM | 623 s⁻¹ | 3.28e+06 M⁻¹ s⁻¹ |
